These results are taken from US20120288506A1 (Eli Lilly, published 2012).

Experiment [1] addresses T1, recombinant human c-Kit (rh-c-Kit) protein (R&D Systems) (human, UniProt P10721 26-520, limits assumed).
T1 construct: also called human c-Kit protein; human c-Kit (1.0 ug/ml)
The experiment in a line: blocking ELISA: CK6 pre-incubated with rh-c-Kit, added to SCF-coated wells. The procedure:
Purified mAbs can be also tested for their ability to block the binding of c-Kit and its ligand. […] Following washes, wells are blocked with 3% PBS/milk. […] Following several washes (3-5), a 1:1000 dilution of anti-human IgG-HRP conjugated antibody is added to the plates for one hour at room temperature. Plates are washed in 0.2% Tween-PBS and HRP substrate is added to each well and incubated until blue color is developed. Stop solution is added and absorbance is measured at 450 nm.
On the technique in general: In an ELISA, binding on a coated surface is turned into a signal by an enzyme label.

The target of experiment [2] is T2, recombinant mouse c-Kit (rm-c-Kit; Gln26-Thr519) (R&D Systems) (mouse, UniProt P05532 26-519).
T2 construct: also called mouse c-Kit (1.0 ug/ml)
T2 sequence (looked up): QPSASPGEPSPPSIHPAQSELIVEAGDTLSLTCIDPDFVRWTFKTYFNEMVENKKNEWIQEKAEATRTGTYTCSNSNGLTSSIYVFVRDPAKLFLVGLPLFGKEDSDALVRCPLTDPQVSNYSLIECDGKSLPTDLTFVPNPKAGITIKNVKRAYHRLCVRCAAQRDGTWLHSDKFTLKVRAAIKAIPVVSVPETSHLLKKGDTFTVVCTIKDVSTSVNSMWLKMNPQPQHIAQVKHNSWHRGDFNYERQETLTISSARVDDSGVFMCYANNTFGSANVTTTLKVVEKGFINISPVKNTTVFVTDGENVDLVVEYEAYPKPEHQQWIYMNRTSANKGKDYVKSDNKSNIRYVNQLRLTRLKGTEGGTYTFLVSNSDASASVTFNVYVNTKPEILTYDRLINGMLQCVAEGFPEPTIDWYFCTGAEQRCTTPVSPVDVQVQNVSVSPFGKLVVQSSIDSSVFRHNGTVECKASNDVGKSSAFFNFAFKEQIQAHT
The experiment in a line: ELISA, plate coated with rm-c-Kit 1 ug/ml. The protocol: (§1) The species binding specificity of anti-human c-Kit mAbs can be determined by measuring the reactivity of the antibodies to human, cynomolgus, and mouse c-Kit proteins in an ELISA. […] Following washes, wells are blocked with 3% PBS/milk. Serial dilutions of human anti-human-c-Kit mAbs are then added to the c-Kit-coated wells and allowed to incubate for two hours at room temperature. Following several washes, a 1:1000 dilution of anti-human IgG-HRP conjugated antibody is added to the plates for one hour at room temperature in order to detect bound human antibody. Plates are washed and HRP substrate is added to each well and incubated until blue color is developed. Stop solution is added and absorbance is measured at 450 nm.

The target in experiment [3] is plasma membrane bound human c-Kit expressed by human tumor cells (Mo7e; also Malm-3M) (human, UniProt P10721 26-976). Briefly: cell-based or functional assay.
Sequence of plasma membrane bound human c-Kit expressed by human tumor cells (Mo7e; also Malm-3M) (P10721 26-976): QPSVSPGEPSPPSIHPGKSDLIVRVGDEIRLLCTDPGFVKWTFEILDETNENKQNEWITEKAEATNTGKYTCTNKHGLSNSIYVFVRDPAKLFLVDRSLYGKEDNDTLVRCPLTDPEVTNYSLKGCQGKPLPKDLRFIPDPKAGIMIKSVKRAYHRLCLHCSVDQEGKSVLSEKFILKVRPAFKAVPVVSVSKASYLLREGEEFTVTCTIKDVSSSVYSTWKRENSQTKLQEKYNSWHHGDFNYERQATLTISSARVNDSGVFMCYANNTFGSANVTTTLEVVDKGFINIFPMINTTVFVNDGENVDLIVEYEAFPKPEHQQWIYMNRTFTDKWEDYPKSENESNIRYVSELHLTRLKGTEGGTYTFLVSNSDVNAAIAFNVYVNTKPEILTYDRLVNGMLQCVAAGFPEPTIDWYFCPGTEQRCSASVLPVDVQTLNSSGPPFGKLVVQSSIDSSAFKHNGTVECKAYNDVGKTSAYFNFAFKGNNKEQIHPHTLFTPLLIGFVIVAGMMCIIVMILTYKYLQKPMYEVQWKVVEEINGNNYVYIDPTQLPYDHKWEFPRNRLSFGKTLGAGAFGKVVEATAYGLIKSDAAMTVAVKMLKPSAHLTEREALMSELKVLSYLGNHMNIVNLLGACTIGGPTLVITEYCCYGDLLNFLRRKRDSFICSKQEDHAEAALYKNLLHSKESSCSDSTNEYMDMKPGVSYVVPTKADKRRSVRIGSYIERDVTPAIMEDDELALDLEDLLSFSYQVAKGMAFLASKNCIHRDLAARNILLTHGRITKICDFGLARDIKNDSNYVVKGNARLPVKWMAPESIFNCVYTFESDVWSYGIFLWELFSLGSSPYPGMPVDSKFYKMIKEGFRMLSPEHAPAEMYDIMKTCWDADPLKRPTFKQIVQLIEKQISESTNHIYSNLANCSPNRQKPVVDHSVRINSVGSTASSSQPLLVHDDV
Experiment [4] deals with T3, cynomolgus c-Kit (cyno-c-Kit; Met1-His549 prepared recombinantly) (cynomolgus).
T3 construct: The printed range starts at Met1, so it includes the signal peptide of the expressed construct; also called cynomologus c-Kit; cynomolgus c-Kit (1.0 ug/ml)
The experiment in a line: ELISA, plate coated with cyno-c-Kit 1 ug/ml. The protocol:
as §1

For experiment [5], the target named is T1, recombinant human c-Kit (rh-c-Kit) …. The experiment in a line: SPR (BIAcore), rh-c-kit immobilized on CM5 chip, 25 C. (Surface plasmon resonance follows binding to a sensor surface in real time, without labels.)
Experiment [6] has the same target. The experiment in a line: ELISA, plate coated with rh-c-Kit 1 ug/ml, anti-human IgG-HRP detection. The protocol: Following washes, wells are blocked with 3% PBS/milk. […] Plates are washed and HRP substrate is added to each well and incubated until blue color is developed. Stop solution is added and absorbance is measured at 450 nm.
Experiment [7] concerns the target T4, plasma membrane bound mouse (p815) c-Kit expressed by mouse tumor cells (p815) (mouse, UniProt P05532 25-979).
T4 construct: whole, on cells; also called c-Kit on P815 cells
Briefly: flow cytometry on whole live P815 cells. The procedure:
Species specificity of c-Kit mAbs can be further tested for their binding to plasma membrane bound c-Kit expressed on the surface of human Mo7e and mouse P815 cells based on the flow cytometry analysis (see, e.g., WO2004/007735). Briefly, whole, live human Mo7e and mouse P815 cells are serum starved overnight, washed 3 times in cold blocking buffer (5% FBS in PBS), and then resuspended in 100 μl of blocking buffer. An anti-c-Kit antibody is added at 1.0 μg/ml and the mixture is incubated for 30 minutes at 4° C. A secondary fluorescence-conjugated antibody (Jackson ImmunoResearch) is added at 1.0 μg/ml to detect human antibody bound to the cell surface via flow cytometry analysis.
In general terms: A flow cytometer gives signals particle by particle.

T1 sequence (P10721 26-520 limits assumed): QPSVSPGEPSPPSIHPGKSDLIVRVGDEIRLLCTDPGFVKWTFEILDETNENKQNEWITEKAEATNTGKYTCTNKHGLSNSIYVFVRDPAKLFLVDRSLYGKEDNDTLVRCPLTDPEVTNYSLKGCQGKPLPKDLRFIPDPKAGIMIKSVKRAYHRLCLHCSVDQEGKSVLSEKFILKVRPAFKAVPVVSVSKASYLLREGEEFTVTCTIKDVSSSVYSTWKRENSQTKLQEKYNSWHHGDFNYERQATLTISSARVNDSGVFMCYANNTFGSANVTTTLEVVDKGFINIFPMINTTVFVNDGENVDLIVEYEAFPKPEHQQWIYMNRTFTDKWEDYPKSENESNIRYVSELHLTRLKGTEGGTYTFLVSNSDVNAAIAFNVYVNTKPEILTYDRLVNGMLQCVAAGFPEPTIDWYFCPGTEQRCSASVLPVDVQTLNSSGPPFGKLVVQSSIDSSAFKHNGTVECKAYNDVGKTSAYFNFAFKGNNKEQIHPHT
T4 sequence (P05532 25-979): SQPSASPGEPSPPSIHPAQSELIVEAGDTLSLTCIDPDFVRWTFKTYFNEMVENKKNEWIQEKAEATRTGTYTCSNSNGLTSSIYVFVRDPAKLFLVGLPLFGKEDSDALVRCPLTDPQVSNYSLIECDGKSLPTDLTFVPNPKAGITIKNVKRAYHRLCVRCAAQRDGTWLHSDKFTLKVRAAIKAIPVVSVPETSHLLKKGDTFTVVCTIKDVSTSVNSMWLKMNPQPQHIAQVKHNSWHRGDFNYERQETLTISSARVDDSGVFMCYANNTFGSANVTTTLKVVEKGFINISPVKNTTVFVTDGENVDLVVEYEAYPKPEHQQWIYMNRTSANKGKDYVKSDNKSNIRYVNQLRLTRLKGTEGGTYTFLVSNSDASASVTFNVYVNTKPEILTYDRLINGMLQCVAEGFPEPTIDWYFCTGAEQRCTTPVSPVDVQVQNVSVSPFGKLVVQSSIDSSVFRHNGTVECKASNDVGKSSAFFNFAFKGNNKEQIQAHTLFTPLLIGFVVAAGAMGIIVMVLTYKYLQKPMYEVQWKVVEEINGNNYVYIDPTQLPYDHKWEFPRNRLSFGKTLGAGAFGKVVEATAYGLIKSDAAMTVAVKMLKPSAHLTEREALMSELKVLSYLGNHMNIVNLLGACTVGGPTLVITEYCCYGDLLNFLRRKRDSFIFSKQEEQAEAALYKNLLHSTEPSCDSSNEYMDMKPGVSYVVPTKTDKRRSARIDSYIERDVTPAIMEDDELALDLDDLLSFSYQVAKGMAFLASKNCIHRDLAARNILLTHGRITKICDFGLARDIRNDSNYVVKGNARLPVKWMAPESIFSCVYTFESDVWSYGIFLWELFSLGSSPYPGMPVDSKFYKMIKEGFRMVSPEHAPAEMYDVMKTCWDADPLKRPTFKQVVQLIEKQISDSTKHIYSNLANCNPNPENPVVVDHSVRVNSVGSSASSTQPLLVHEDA

B1: anti-human c-Kit monoclonal antibody CK6 (antibody, human IgG1, kappa, V domains shown)
VH: QVQLVQSGAAVKKPGESLKISCKGSGYRFTSYWIGWVRQMPGKGLEWMGIIYPGDSDTRYSPSFQGQVTISAGKSISTAYLQWSSLKASDTAMYYCARHGRGYNGYEGAFDIWGQGTMVTVSS
VL: AIQLTQSPSSLSASVGDRVTITCRASQGISSALAWYQQKPGKAPKLLIYDASSLESGVPSRFSGSGSGTDFTLTISSLQPEDFATYYCQQFNSYPLTFGGGTKVEIKR
notes: also called mAb CK6; anti-c-Kit mAb CK6
As usually defined, the IC50 is the concentration at which inhibition is half-maximal. A word on the EC50: it is the concentration giving half of the maximal effect. By Kd is commonly meant a measure of binding affinity in units of concentration. Regarding B1, the IC50 in experiment [1] was roughly 0.04 nM. Also, the binding result in experiment [2] is reported as “no binding”; in experiment [7], “no binding (tested: 1.0 µg/ml)”. Also, the “IC50 of inhibition of c-Kit and MAPK phosphorylation in response to SCF in Mo7e ('Mole') leukemia cells, western blot” value in experiment [3] worked out at 0.3 nM. For the same molecule, the EC50 in experiment [4] was 0.057 nM; in experiment [6] it was roughly 0.03 nM. Also, the Kd in experiment [5] is 0.066 nM.
